Measurements as given in patent publication US20220119507A1 (OHEALTH BIOPHARMACEUTICAL SUZHOU, published 2022).

Columns and labels:
[1] = target: T1, fragment of PTX3 recombinant protein listed as SEQ ID NO:5 (human); assay: ELISA on coated fragments SEQ ID NOs:1 to 10 (FIG. 4)
T1 peptide: WVKATDVLN

[2] = target: T2, fragment of PTX3 recombinant protein listed as SEQ ID NO:4 (human); assay: as above
T2 peptide: ACIWVKATD

[3] = target: T3, fragment of PTX3 recombinant protein listed as SEQ ID NO:3 (human); assay: as above
T3 peptide: SFSACIWVK

[4] = target: PTX3 recombinant protein (undenatured amino acid sequence listed as SEQ ID NO:14) (human, UniProt P26022 19-381); assay: ELISA, PTX3 (SEQ ID NO:14) coated at 10 ug/mL, antibody 0.01 to 1000 ng/mL (FIG. 2)
PTX3 recombinant protein (undenatured amino acid sequence listed as SEQ ID NO:14), sequence (P26022 19-381 limits assumed): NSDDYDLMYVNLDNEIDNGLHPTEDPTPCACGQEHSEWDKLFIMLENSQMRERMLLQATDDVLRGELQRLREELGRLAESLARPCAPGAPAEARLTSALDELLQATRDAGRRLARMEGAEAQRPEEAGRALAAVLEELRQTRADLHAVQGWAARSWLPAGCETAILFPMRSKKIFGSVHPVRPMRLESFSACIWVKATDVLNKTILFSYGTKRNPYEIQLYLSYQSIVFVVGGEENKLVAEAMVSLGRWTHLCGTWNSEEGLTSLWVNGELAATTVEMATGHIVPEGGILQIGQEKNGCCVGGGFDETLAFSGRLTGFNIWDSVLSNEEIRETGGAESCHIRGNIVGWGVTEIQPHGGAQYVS
Protocol: Firstly, 10 μg/mL of PTX3 recombinant protein (representing a undenatured amino acid sequence listed as SEQ ID NO:14, dissolved in pH 7.2 PBS) was coated onto each well of a 96-well cell culture plate (Product No. 9018, Corning Costar), and reacted at 4° C. overnight. Next, the blocking solution (containing 3% BSA in PBS) was added into wells, and blocked for 1 hour under room temperature (i.e. 4° C. to 40° C.). After removing the blocking solution, each well was rinsed with PBS, and then reacted with a primary antibody for 1 hour under room temperature (i.e. 4° C. to 40° C.), in which the primary antibody was PTX3 mAb of EXAMPLE 1 serially diluted in a concentration range of 0.01 ng/mL to 1000 ng/mL. And then, each well was rinsed several times with PBST (i.e. PBS with Tween 20) for removing unconjugated PTX3 mAb, and reacted with secondary antibody under room temperature (i.e. 4° C. to 40° C.), in which the secondary antibody was anti-mouse IgG-HRP. Afterward, TMB was added into each well for reaction over a time period, and then added with 0.1 M of H₂SO₄ solution for 10 minutes to stop the reaction. Subsequently, the absorbance at 450 nm of each well was measured by commercially available ELISA reader, and the results were shown in FIG. 2. Each value was obtained in quadruplicate. […]

[5] = target: T4, amino acid sequence listed as SEQ ID NO:11 (203th to 217th amino acid residues of PTX3 recombinant protein) (human); assay: hybridoma screening
T4 peptide: RLESFSACIWVKATD

[6] = target: T5, fragment of PTX3 recombinant protein listed as SEQ ID NO:6 (human); assay: hybridoma screening
T5 peptide: ATDVLNKTI

[7] = target: T6, fragment of PTX3 recombinant protein listed as SEQ ID NO:10 (human); assay: hybridoma screening
T6 peptide: YGTKRNPYEI

[8] = target: T7, fragment of PTX3 recombinant protein listed as SEQ ID NO:8 (human); assay: hybridoma screening
T7 peptide: KTILFSYGT

[9] = target: T8, fragment of PTX3 recombinant protein listed as SEQ ID NO:1 (human); assay: hybridoma screening
T8 peptide: RPMRLESFS

[10] = target: T9, fragment of PTX3 recombinant protein listed as SEQ ID NO:9 (human); assay: hybridoma screening
T9 peptide: LFSYGTKRN

[11] = target: T10, RI37, fragment of PTX3 recombinant protein listed as SEQ ID NO:12 (200th to 236th amino acid residues) (human); assay: hybridoma screening
T10 peptide: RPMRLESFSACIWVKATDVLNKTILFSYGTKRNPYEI

[12] = target: T11, fragment of PTX3 recombinant protein listed as SEQ ID NO:7 (human); assay: hybridoma screening
T11 peptide: VLNKTILFS

[13] = target: T12, fragment of PTX3 recombinant protein listed as SEQ ID NO:2 (human); assay: hybridoma screening
T12 peptide: RLESFSACI

B1: PTX3 monoclonal antibody of EXAMPLE 1 (antibody, V domains shown)
VH: EVQLQQSGAELVKPGASVKLSCTASDFNIKHTYLHWVLQRPEQGLEWIGRIDPANGDTKYDPKFQGKATITADTSSNTAYLHLSSLTSEDTAVYYCARVTTVVGFDYWGQGTTLTVSS
VL: QIVLTQSPAIMSTSLGERVTMTCTASSSVISTYLNWYQQKPGSSPKLWIYSTSNLASGVPARFSGSGSGTSYSLTISSMEAEDAATYFCHQFQRSPLTFGAGTKLELKR
notes: also called PTX3 mAb
0.085 nM: Kd [4]
binds: binding result [1] | binding result [2] | binding result [3] | binding result [5] | binding result [6] | binding result [7] | binding result [8] | binding result [9] | binding result [10] | binding result [11] | binding result [12] | binding result [13]
